Experimental data as given in patent US20080249083.

T1: amyloid β(3-11)
T1 chain: EFRHDSGYE

B1: human QC (glutaminyl cyclase, QPCT) (protein)
chain: VSPSASAWPEEKNYHQPAILNSSALRQIAEGTSISEMWQNDLQPLLIERYPGSPGSYAARQHIMQRIQRLQADWVLEIDTFLSQTPYGYRSFSNIISTLNPTAKRHLVLACHYDSKYFSHWNNRVFVGATDSAVPCAMMLELARALDKKLLSLKTVSDSKPDLSLQLIFFDGEEAFLHWSPQDSLYGSRHLAAKMASTPHPPGARGTSQLHGMDLLVLLDLIGAPNPTFPNFFPNSARWFERLQAIEHELHELGLLKDHSLEGRYFQNYSYGGVIQDDHIPFLRRGVPVLHLIPSPFPEVWHTMDDNEENLDESTIDNLNKILQVFVLEYLHL
B2: YSShisoQCI55NC351A C-His (human isoQC expressed in P. pastoris) (protein)
chain: FYTIWSGWHRRTEELPLGRELRVPLNGSLPEARLRRVVGQLDPQRLWSTYLRPLLVVRTPGSPGNLQVRKFLEATLRSLTAGWHVELDPFTASTPLGPVDFGNVVATLDPRAARHLTLACHYDSKLFPPGSTPFVGATDSAVPCALLLELAQALDLELSRAKKQAAPVTLQLLFLDGEEALKEWGPKDSLYGSRHLAQLMESIPHSPGPTRIQAIELFMLLDLLGAPNPTFYSHFPRTVRWFHRLRSIEKRLHRLNLLQSHPQEVMYFQPGEPFGSVEDDHIPFLRRGVPVLHLISTPFPAVWHTPADTEVNLHPPTVHNLARILAVFLAEYLGLHHHHHH

Biological target: T1, amyloid β(3-11)

Row | Protein | conversion of Aβ(3-11) into pGlu-Aβ(3-11), Maldi-Tof mass spectrometry
1 | B1 | human QC and human isoQC (YSShisoQCI55NC351A C-His) catalyze the conversion of Aβ(3-11) into pGlu-Aβ(3-11)
2 | B2 | human QC and human isoQC (YSShisoQCI55NC351A C-His) catalyze the conversion of Aβ(3-11) into pGlu-Aβ(3-11); the conversion of N-terminal glutamic acid by hisoQC is much slower compared with hQC
